Paper PMC5763555

T1: MEX-5 TZF domain (Caenorhabditis elegans, UniProt Q9XUB2 236-350)
T1 sequence: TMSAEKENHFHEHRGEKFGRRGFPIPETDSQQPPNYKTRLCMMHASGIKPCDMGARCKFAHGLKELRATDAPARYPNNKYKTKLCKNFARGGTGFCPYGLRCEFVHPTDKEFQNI


Tests used:
Assay in all cases: EMSA
MEX-5 TZF domain = biological target: T1, MEX-5 TZF domain
POS-1(ZFmut) TZF domain = POS-1(ZFmut) TZF domain (Caenorhabditis elegans, UniProt G5EF15 80-180, F121N;F164N)
POS-1 TZF domain = POS-1 TZF domain (Caenorhabditis elegans, UniProt G5EF15 80-180)
POS-1 TZF domain, sequence (G5EF15 80-180): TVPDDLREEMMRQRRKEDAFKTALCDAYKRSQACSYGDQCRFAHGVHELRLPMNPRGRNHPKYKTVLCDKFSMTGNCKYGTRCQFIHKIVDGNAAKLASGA

POS-1(ZFmut) TZF domain, sequence (G5EF15 80-180 F121N/F164N): as the sequence (G5EF15 80-180) above, with F42N, F85N counted along it

Row | Binder | Kd (MEX-5 TZF domain) [nM] | Kd (POS-1(ZFmut) TZF domain) [nM] | Kd (POS-1 TZF domain) [nM]
1 | GUGAUUAUUUAUUAUUUAUUUAUUAUUUAUUUAUUAG (ssRNA) [TNF-ARE] | 11 ± 2 | – | –
2 | UUUUUCUUAUUCUAGACUAAUAUUGUAAGCU (ssRNA) [SCR+ (glp-1 3'UTR fragment)] | – | > 300 | 26.9 ± 1.8
